Results taken from publication PMC2747730 (Biochemistry, 2008).

Target: the molecule itself
Experiment: PFG-NMR translational diffusion

B1: Sml1 (suppressor of Mec1 lethality), full length wild type (natural protein, S. cerevisiae, UniProt Q04964 1-104, looked up)
chain: MQNSQDYFYAQNRCQQQQAPSTLRTVTMAEFRRVPLPPMAEVPMLSTQNSMGSSASASASSLEMWEKDLEERLNSIDHDMNNNKFGSGELKSMFNQGKVEEMDF
B1 was tested. Which Kd did it give?
Its Kd is 93 ± 25 µM.
